Assay results as given in PMC9844003.
Numbering of substitutions follows the chain as printed. In names and notes the source's numbering stands. One block for each binder: values may come before it.

Columns and labels:
[1] = molecular target: extracellular domain of CD47 fused to a His(×6)-Avi-tag; experiment: ELISA; conditions: chain shown with the change, read off a plot
[2] = molecular target: extracellular domain of CD47 fused to a His(×6)-Avi-tag (human); experiment: ELISA; CD47-ECD coated on plates; serially diluted IgGs, detected with anti-human IgG Fc-HRP; pH 6.8 (of a series from pH 6.2 to 7.6)
[3] = molecular target: extracellular domain of CD47 fused to a His(×6)-Avi-tag (human); experiment: ELISA; CD47-ECD coated on plates; serially diluted IgGs, detected with anti-human IgG Fc-HRP; pH 7.6 (of a series from pH 6.2 to 7.6)

extracellular domain of CD47 fused to a His(×6)-Avi-tag, sequence (chain, as listed by the source): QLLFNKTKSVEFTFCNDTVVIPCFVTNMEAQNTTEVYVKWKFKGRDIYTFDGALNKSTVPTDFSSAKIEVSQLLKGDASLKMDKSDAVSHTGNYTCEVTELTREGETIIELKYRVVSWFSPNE

EC50 ([1]; pH 6.8, parent: est. -1.3): 1.4 log10(nM)
EC50 ([1]; pH 7.4, parent: est. -0.1): 1.9 log10(nM)
B1: BC31M4 (hIgG1 form) L:H38R; L:H107R (protein)
chain 1: QVQLVQSGAEVKKPGASVKVSCKASGYTFTSYGISWVRQAPGQGLEWMGWISAYNGNTNYAQKLQGRVTMTTDTSTSTAYMELRSLRSDDTAVYYCARGAVYFDYWGQGTLVTVSS
chain 2: EIVLTQSPATLSLSPGERATLSCRASQSLSRNRLAWYQQKPGQPPRLLIHWASTRESGVPDRFSGSGSGTDFTLTISSLQAEDVAVYYCQQRTQNTWTFGQGTKVEIK

EC50 ([1]; pH 6.8, parent: est. -1.3): 0.4 log10(nM)
EC50 ([1]; pH 7.4, parent: est. -0.1): 1.3 log10(nM)
B3: BC31M4 (hIgG1 form) L:H55R; L:H107R (protein)
chain 1: B1 chain 1
chain 2: B1 chain 2 with R33H, H50R

Second part, the binder before the results:

B2: BC31M4 (hIgG1 form) (antibody, V domains shown)
VH: B1 chain 1
VL: B1 chain 2 with R33H, R92H
EC50 [2]: 0.03 nM
EC50 [3]: 2.12 nM

B4: BC31M4 (hIgG1 form) L:H38R; L:H55R (protein)
chain 1: B1 chain 1
chain 2: B1 chain 2 with H50R, R92H
EC50 ([1]; pH 6.8, parent: est. -1.3): -0.9 log10(nM)
EC50 ([1]; pH 7.4, parent: est. -0.1): -0.1 log10(nM)

B5: BC31M4 (hIgG1 form) L:H38R; L:H55R; L:H107R (protein)
chain 1: B1 chain 1
chain 2: B1 chain 2 with H50R
response ([1]; pH 6.8, highest antibody concentration, Log[Ab] (nM) about 3.5): 2 OD450
